The target in data set [1] is T1, C. sporogenes MGL (Clostridium sporogenes, UniProt A0A7X5SZI3).
T1 construct: gene megL; subunit 43 kDa; PLP enzyme
T1 sequence (A0A7X5SZI3 1-400): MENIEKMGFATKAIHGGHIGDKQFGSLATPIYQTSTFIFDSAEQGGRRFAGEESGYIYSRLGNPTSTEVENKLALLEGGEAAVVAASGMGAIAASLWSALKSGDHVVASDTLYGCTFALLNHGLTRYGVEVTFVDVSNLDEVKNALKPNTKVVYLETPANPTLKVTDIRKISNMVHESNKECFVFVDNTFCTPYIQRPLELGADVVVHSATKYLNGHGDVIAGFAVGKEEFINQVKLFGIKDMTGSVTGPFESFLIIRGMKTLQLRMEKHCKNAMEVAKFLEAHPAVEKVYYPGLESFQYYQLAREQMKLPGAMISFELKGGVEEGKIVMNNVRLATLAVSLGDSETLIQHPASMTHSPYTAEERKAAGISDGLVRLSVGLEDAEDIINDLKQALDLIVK
Description: inhibition of L-Met γ-elimination, NADH-coupled with D-2-hydroxyisocaproate dehydrogenase, Dixon plot. Type of data set: biochemical. The text has this:
inhibition of L-Met γ-elimination, NADH-coupled with D-2-hydroxyisocaproate dehydrogenase, Dixon plot on C. sporogenes MGL

Data set [2] addresses T1, C. sporogenes MGL. Description: absorption spectrum of holoenzyme, lognormal deconvolution of internal aldimine bands. It is filed as binding. As to conditions: covalent internal aldimine; pH 8.0, 25 °C, working buffer without PLP.
For data set [3], the target named is T1, C. sporogenes MGL. Description: γ-elimination steady-state kinetics, NADH-coupled with D-2-hydroxyisocaproate dehydrogenase, […] nm. It is filed as biochemical. Particulars: pH 8.0, 100 mM potassium phosphate, 0.1 mM PLP, 1 mM DTT, 1 mM EDTA, 30 °C.
Substrate in data set [4]: C[S+]([O-])CC[C@H](N)C(=O)O
Description: purified protein. Type of data set: biochemical, Clostridium sporogenes. Particulars: pH 8.0, 100 mM potassium phosphate, 0.1 mM PLP, 1 mM DTT, 1 mM EDTA, 30 °C.

Substrate in data set [5]: C=CC[S+]([O-])C[C@H](N)C(=O)O
Description: purified protein. Type of data set: biochemical, Clostridium sporogenes. As to conditions: pH 8.0, 100 mM potassium phosphate, 0.1 mM PLP, 1 mM DTT, 1 mM EDTA, 30 °C.

Substrate in data set [6]: CCSC[C@H](N)C(=O)O
Description: purified protein. It is filed as biochemical, Clostridium sporogenes. As to conditions: pH 8.0, 100 mM potassium phosphate, 0.1 mM PLP, 1 mM DTT, 1 mM EDTA, 30 °C.

Substrate in data set [7]: CC(=O)OC[C@H](N)C(=O)O
Description: purified protein. Particulars: pH 8.0, 100 mM potassium phosphate, 0.1 mM PLP, 1 mM DTT, 1 mM EDTA, 30 °C. It is filed as biochemical, Clostridium sporogenes.

Substrate in data set [8]: CSCC[C@H](N)C(=O)O
Description: purified protein. Type of data set: biochemical, Clostridium sporogenes. As to conditions: pH 8.0, 100 mM potassium phosphate, 0.1 mM PLP, 1 mM DTT, 1 mM EDTA, 30 °C.

Substrate in data set [9]: CC[S+]([O-])CC[C@H](N)C(=O)O
Description: purified protein. It is filed as biochemical, Clostridium sporogenes. Particulars: pH 8.0, 100 mM potassium phosphate, 0.1 mM PLP, 1 mM DTT, 1 mM EDTA, 30 °C.

Substrate in data set [10]: CC(=O)OCC[C@H](N)C(=O)O
Description: purified protein. As to conditions: pH 8.0, 100 mM potassium phosphate, 0.1 mM PLP, 1 mM DTT, 1 mM EDTA, 30 °C. It is filed as biochemical, Clostridium sporogenes.

Substrate in data set [11]: CC[S+]([O-])C[C@H](N)C(=O)O
Description: purified protein. Type of data set: biochemical, Clostridium sporogenes. Particulars: pH 8.0, 100 mM potassium phosphate, 0.1 mM PLP, 1 mM DTT, 1 mM EDTA, 30 °C.

Here are results for seven molecules from paper PMC4717258, “Sulfoxides, Analogues of L-Methionine and L-Cysteine As Pro-Drugs against Gram-Positive and Gram-Negative Bacteria” (Acta Naturae, 2015).

As a reminder, the Ki is a dissociation constant, usually derived from enzyme kinetics or from competition with a known ligand. `CC[C@H](N)C(=O)O` [L-Abu] yielded an inhibition constant (Ki) on C. sporogenes MGL [1] of 2 mM.

As to `Cc1ncc(COP(=O)(O)O)c(C=O)c1O` [PLP], the “absorption spectrum of holoenzyme, lognormal deconvolution of internal aldimine” value at C. sporogenes MGL [2] is “The ionic form of the internal aldimine and tautomeric equilibrium are almost the same”.

As usually defined, the Km is the concentration of substrate that gives half-maximal velocity. Regarding `CCSCC[C@H](N)C(=O)O` [S-Et-L-Hcy], the Michaelis constant (Km) on C. sporogenes MGL [3] was found to be 240 µM.

Turning to `C[C@H](N)C(=O)O` [L-Ala], on C. sporogenes MGL [1], affinity was put at a Ki of 1.5 mM.

`CCCC[C@H](N)C(=O)O` [L-Nle] had a Ki at C. sporogenes MGL [1] of 0.37 mM.

At C. sporogenes MGL [1], `CCC[C@H](N)C(=O)O` [L-Nva] showed a Ki of 1.9 mM.

B1: C. sporogenes MGL (Clostridium sporogenes) (protein)
chain: MENIEKMGFATKAIHGGHIGDKQFGSLATPIYQTSTFIFDSAEQGGRRFAGEESGYIYSRLGNPTSTEVENKLALLEGGEAAVVAASGMGAIAASLWSALKSGDHVVASDTLYGCTFALLNHGLTRYGVEVTFVDVSNLDEVKNALKPNTKVVYLETPANPTLKVTDIRKISNMVHESNKECFVFVDNTFCTPYIQRPLELGADVVVHSATKYLNGHGDVIAGFAVGKEEFINQVKLFGIKDMTGSVTGPFESFLIIRGMKTLQLRMEKHCKNAMEVAKFLEAHPAVEKVYYPGLESFQYYQLAREQMKLPGAMISFELKGGVEEGKIVMNNVRLATLAVSLGDSETLIQHPASMTHSPYTAEERKAAGISDGLVRLSVGLEDAEDIINDLKQALDLIVK
notes: subunit 43 kDa; PLP enzyme
Usually kcat stands for the maximal rate divided by the concentration of active sites. As usually defined, the kcat/Km is the turnover number divided by the Michaelis constant. Take B1: the Km in “purified protein [4]” came out at 11390 µM; in “purified protein [5]”, 1430 µM; in “purified protein [6]” it was 430 µM; in the data set “purified protein [7]”, 8010 µM; in the data set “purified protein [8]” it was 600 µM; in “purified protein [9]”, 600 µM. Besides, the Km was 3180 µM in the data set “purified protein [10]” and 330 µM in “purified protein [11]”. For the same molecule, the kcat is 21.7 s⁻¹ in “purified protein [4]”; 11.4 s⁻¹ in “purified protein [5]”; 6.53 s⁻¹ in “purified protein [6]”; 21.6 s⁻¹ in “purified protein [8]”; 0.48 s⁻¹ in “purified protein [9]”; 37.3 s⁻¹ in “purified protein [10]”. For the same molecule, the kcat in “purified protein [11]” came out at 1.39 s⁻¹. The kcat/Km in “purified protein [4]” is 1900 M⁻¹ s⁻¹; in “purified protein [5]”, 7990 M⁻¹ s⁻¹; in “purified protein [6]”, 15200 M⁻¹ s⁻¹; in the data set “purified protein [8]”, 36000 M⁻¹ s⁻¹; in the data set “purified protein [9]”, 800 M⁻¹ s⁻¹; in “purified protein [10]”, 11700 M⁻¹ s⁻¹. Further, the catalytic efficiency (kcat/Km) in “purified protein [11]” was 4210 M⁻¹ s⁻¹.
